Experimental data as given in paper PMC13539869, “Dpb11 facilitates the colocalization of Mec1-Ddc2 with its activators on gapped DNA” (Cell reports, 2026).
One block for each molecule: values may come before it.

Assays:
[1] = tested on: Dpb11;Mec1;Ddc2;RPA (Saccharomyces cerevisiae;Saccharomyces cerevisiae;Saccharomyces cerevisiae;Saccharomyces cerevisiae); assay: single-molecule fluorescence (C-Trap kymographs); details: 5' dual-biotin at both ends; Imaging: 25 mM Tris-HCl pH 7.5, 100 mM NaCl, 10 mM Mg acetate, 2 mM TCEP, 0.1 mM EDTA, 0.04 mg/mL BSA, 1% glycerol, oxygen scavengers; room temperature, no …; scale: % of Mec1-Ddc2 binding events at gap junctions
[2] = tested on: Dpb11;RPA (Saccharomyces cerevisiae;Saccharomyces cerevisiae); assay: single-molecule fluorescence (C-Trap kymographs); details: 5' dual-biotin at both ends; Imaging: 25 mM Tris-HCl pH 7.5, 100 mM NaCl, 10 mM Mg acetate, 2 mM TCEP, 0.1 mM EDTA, 0.04 mg/mL BSA, 1% glycerol, oxygen scavengers; room temperature, no …
[3] = molecular target: T1, Sc Dpb11 recombinant protein (unlabeled) (S. cerevisiae), P47027; assay: mass photometry; 150 nM Dpb11, label-free, MP Buffer (25 mM Tris-HCl pH 7.5, 250 mM NaCl, 10 mM Mg(CH3COO)2, 2 mM TCEP, 0.1 mM EDTA, 4% glycerol); monomer and dimer; details: remark: other sources report otherwise
T1 chain: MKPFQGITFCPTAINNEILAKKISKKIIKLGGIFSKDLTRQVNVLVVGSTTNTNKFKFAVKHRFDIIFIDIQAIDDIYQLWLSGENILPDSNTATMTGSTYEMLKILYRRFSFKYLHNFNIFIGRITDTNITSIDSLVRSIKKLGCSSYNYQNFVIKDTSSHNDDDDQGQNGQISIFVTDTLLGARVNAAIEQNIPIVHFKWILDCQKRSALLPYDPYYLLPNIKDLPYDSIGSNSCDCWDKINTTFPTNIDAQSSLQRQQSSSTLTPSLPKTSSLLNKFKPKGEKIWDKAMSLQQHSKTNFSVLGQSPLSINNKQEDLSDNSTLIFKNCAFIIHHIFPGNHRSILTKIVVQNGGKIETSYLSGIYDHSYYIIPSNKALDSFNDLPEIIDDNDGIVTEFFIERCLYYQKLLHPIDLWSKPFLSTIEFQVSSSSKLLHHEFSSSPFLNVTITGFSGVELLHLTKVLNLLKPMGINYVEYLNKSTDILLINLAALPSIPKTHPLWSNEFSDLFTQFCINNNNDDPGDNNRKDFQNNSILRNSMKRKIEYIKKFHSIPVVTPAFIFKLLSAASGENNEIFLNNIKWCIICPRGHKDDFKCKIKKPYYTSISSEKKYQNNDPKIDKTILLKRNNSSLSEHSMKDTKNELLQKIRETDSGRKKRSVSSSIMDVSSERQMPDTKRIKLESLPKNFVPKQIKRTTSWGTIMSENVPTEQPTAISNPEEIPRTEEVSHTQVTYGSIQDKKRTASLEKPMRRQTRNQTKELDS

[4] = molecular target: T1, Sc Dpb11 recombinant protein …; assay: mass photometry; 50 nM Dpb11, label-free, MP Buffer (25 mM Tris-HCl pH 7.5, 250 mM NaCl, 10 mM Mg(CH3COO)2, 2 mM TCEP, 0.1 mM EDTA, 4% glycerol); monomer and dimer; details: remark: other sources report otherwise
[5] = molecular target: T2, Mec1-Ddc2^LD555 (Mec1(b)-Ddc2 labeled with LD555) (S. cerevisiae, UniProt P38111 1-2368; Q04377 1-747, fluorophore LD555 (NHS ester) at the N-terminal amine of Mec1-Ddc2; which chain is not told | fluorophore LD555 (NHS ester) at the N-terminal amine of Mec1-Ddc2; which chain is not told); assay: single-molecule fluorescence imaging (C-Trap, optical tweezers with confocal microscopy); 30 nM fluorescent Mec1-Ddc2, 200 nM unlabeled Dpb11 and 100 nM unlabeled RPA on 3 kb-gapped DNA; distribution of initial binding positions of Mec1-Ddc2; SM Buffer, room temperature, no flow; details: both partners purified
T2 construct: Mec1, S. cerevisiae; gene synthesized by Biomatik; Ddc2, S. cerevisiae; gene by PCR from genomic DNA of strain S288C; also called fluorescent Mec1-Ddc2; Sc Mec1(b)-Ddc2 recombinant protein; copies: 2 + 2

[6] = molecular target: T3, Mec1-Ddc2^AF647 (Mec1(a)-Ddc2 labeled with Alexa Fluor 647) (S. cerevisiae, UniProt P38111 1-2368; Q04377 1-747, fluorophore AF647 (NHS ester) at the N-terminal amine of Mec1-Ddc2; which chain is not told | fluorophore AF647 (NHS ester) at the N-terminal amine of Mec1-Ddc2; which chain is not told); assay: as above; details: both partners purified
T3 construct: Mec1, S. cerevisiae; gene synthesized by Biomatik; Ddc2, S. cerevisiae; gene by PCR from genomic DNA of strain S288C; Only the Mec1(b) plasmid was deposited (Addgene 240737); Mec1(a) differs in the C-terminal tag region; also called Sc Mec1(a)-Ddc2 recombinant protein; copies: 2 + 2

[7] = molecular target: T2, Mec1-Ddc2^LD555 (Mec1(b)-Ddc2 labeled …); assay: single-molecule fluorescence imaging, dual-color colocalization (C-Trap); 10 nM Mec1-Ddc2^LD555, 20 nM Dpb11^LD655, 180 nM unlabeled Dpb11 and 100 nM unlabeled RPA on 3 kb-gapped DNA; SM Buffer, room temperature, no flow; details: both partners purified

Molecule: 3 kb-gapped 19 kb DNA
binding signal [1]: 50
binding signal (% of binding events at gap junctions) [2]: 53

B1: Sc Dpb11 recombinant protein (unlabeled), P47027 1-764 (natural protein)
chain: T1 chain
percent of particles as dimer [3]: 98%
stoichiometry N [3]: 2
percent of particles as dimer [4]: 64%
percent of particles as monomer [4]: 35%
stoichiometry N [4]: 2

Next, values leading:

binding result [5]: binds
binding result [6]: binds
B2: Sc Dpb11 recombinant protein (unlabeled) (natural protein, S. cerevisiae, UniProt P47027 1-764, looked up)
chain: T1 chain
notes: Dpb11, S. cerevisiae strain S288C gene; Eluted from the beads with 3xFLAG peptide; no removal of the tag is described; By mass photometry a mixture of monomer and dimer; also called unlabeled Dpb11

binding result [7]: binds
B3: Dpb11^LD655 (natural protein, S. cerevisiae, UniProt P47027 1-764, looked up)
chain: T1 chain
modifications: fluorophore LD655 (NHS ester) at the N-terminal amine
notes: Dpb11, S. cerevisiae strain S288C gene; Same protein as m1, labeled; In the dual-color experiment 20 nM of it stood with 180 nM unlabeled Dpb11; also called fluorescent Dpb11; Dpb11 labeled with LD655; source: S. cerevisiae strain OY001, GAL1/10 overexpression, purified (FLAG-Ab beads), then labeled with LD655 NHS
